Series [1] can be described thus: Aggregation of Mad1^CTD mutants. In kind it is physicochemical. The conditions noted are these: purified Mad1^CTD mutant. The text has this: The coding region of Mad1^597–719 was cloned by USER® (NEB) into a modified pRSFDuet‐1 vector (71341‐3, Sigma‐Aldrich) with an N‐terminal double Strep His6‐tag, followed by a tobacco etch virus (TEV) protease cleavage site (Demple & Linn, [1982]; Bitinaite et al, [1992]). Mad1 mutants were generated using the QuikChange™ Lightning Site‐Directed Mutagenesis Kit (Agilent), developed by Stratagene Inc. (La Jolla, CA) (Nøhr & Kristiansen, [2003]). Mad1 constructs were transformed into Rosetta™ 2 (DE3) Singles™ Competent Cells (71400, Novagen) for expression. Expression was induced with 0.5 mM IPTG and grown overnight at 18°C. Cells were lysed in 25 mM HEPES pH 8.1, 250 mM NaCl, 2 mM DTT, 5% glycerol, 2 mM EDTA supplemented with lysozyme, and Complete™ EDTA‐free protease inhibitors (Roche). Proteins were purified over a Strep‐Tactin Superflow Plus column (QIAGEN) and cleaved with TEV protease overnight at 4°C. […]
Size exclusion chromatography coupled with multi‐angle static light scattering (SEC‐MALS) was performed using an Agilent 1200 series LC system with an online Dawn Helios ii system (Wyatt) equipped with a QELS+ module (Wyatt) and an Optilab rEX differential refractive index detector (Wyatt). […] The molecular masses were analysed with ASTRA 7.3.0.11 (Wyatt). […]

A further series has as its system kinetochore. The settings on record: cited from earlier work; for kinetochore targeting of F629A / R630A mutants, in words: ref Ji et al, 2017b. The text has this: Formation of the Bub1‐Mad1 complex at kinetochores is dependent on phosphorylation of Bub1, a targeting mechanism conserved from yeast to humans (Heinrich et al, [2014]; London & Biggins, [2014a]; Silió et al, [2015]). In S. cerevisiae, phosphorylation of Bub1 at Thr453 and Thr455 by Mps1 promotes an interaction with Mad1^CTD, with pThr455 alone being sufficient for this interaction (London & Biggins, [2014a]; Ji et al, [2017b]). […] Phe629 is a buried hydrophobic residue which contacts Phe629 of the opposite subunit and therefore contributes to the hydrophobic dimerization interface of Mad1^CTD. Phe629 also contributes to the hydrophobic interface of the Bub1^CD1‐Mad1^CTD complex by stacking with Bub1 Phe475 (Fig 3B). […] However, we suspect this could be linked to disruption of the Mad1 conformation sinc ...

B1: F629A: Mad1 F629A mutant (protein, UniProt Q9Y6D9 1-718, looked up, variant F629A)
Mitotic spindle assembly …: MEDLGENTMVLSTLRSLNNFISQRVEGGSGLDISTSAPGSLQMQYQQSMQLEERAEQIRSKSHLIQVEREKMQMELSHKRARVELERAASTSARNYEREVDRNQELLTRIRQLQEREAGAEEKMQEQLERNRQCQQNLDAASKRLREKEDSLAQAGETINALKGRISELQWSVMDQEMRVKRLESEKQELQEQLDLQHKKCQEANQKIQELQASQEARADHEQQIKDLEQKLSLQEQDAAIVKNMKSELVRLPRLERELKQLREESAHLREMRETNGLLQEELEGLQRKLGRQEKMQETLVGLELENERLLAKLQSWERLDQTMGLSIRTPEDLSRFVVELQQRELALKDKNSAVTSSARGLEKARQQLQEELRQVSGQLLEERKKRETHEALARRLQKRVLLLTKERDGMRAILGSYDSELTPAEYSPQLTRRMREAEDMVQKVHSHSAEMEAQLSQALEELGGQKQRADMLEMELKMLKSQSSSAEQSFLFSREEADTLRLKVEELEGERSRLEEEKRMLEAQLERRALQGDYDQSRTKVLHMSLNPTSVARQRLREDHSQLQAECERLRGLLRAMERGGTVPADLEAAAASLPSSKEVAELKKQVESAELKNQRLKEVFQTKIQEARKACYTLTGYQIDITTENQYRLTSLYAEHPGDCLIFKATSPSGSKMQLLETEFSHTVGELIEVHLRRQDSIPAFLSSLTLELFSRQTVA
Regarding B1, the “aggregation, in words” value in series [1] is recorded as “had a propensity to aggregate”. In the series with kinetochore, the “kinetochore targeting of F629A / R630A mutants, in words” value was “defective in kinetochore targeting”.

B2: R630A: Mad1 R630A mutant (protein, UniProt Q9Y6D9 1-718, looked up, variant R630A)
Mitotic spindle assembly …: MEDLGENTMVLSTLRSLNNFISQRVEGGSGLDISTSAPGSLQMQYQQSMQLEERAEQIRSKSHLIQVEREKMQMELSHKRARVELERAASTSARNYEREVDRNQELLTRIRQLQEREAGAEEKMQEQLERNRQCQQNLDAASKRLREKEDSLAQAGETINALKGRISELQWSVMDQEMRVKRLESEKQELQEQLDLQHKKCQEANQKIQELQASQEARADHEQQIKDLEQKLSLQEQDAAIVKNMKSELVRLPRLERELKQLREESAHLREMRETNGLLQEELEGLQRKLGRQEKMQETLVGLELENERLLAKLQSWERLDQTMGLSIRTPEDLSRFVVELQQRELALKDKNSAVTSSARGLEKARQQLQEELRQVSGQLLEERKKRETHEALARRLQKRVLLLTKERDGMRAILGSYDSELTPAEYSPQLTRRMREAEDMVQKVHSHSAEMEAQLSQALEELGGQKQRADMLEMELKMLKSQSSSAEQSFLFSREEADTLRLKVEELEGERSRLEEEKRMLEAQLERRALQGDYDQSRTKVLHMSLNPTSVARQRLREDHSQLQAECERLRGLLRAMERGGTVPADLEAAAASLPSSKEVAELKKQVESAELKNQRLKEVFQTKIQEFAKACYTLTGYQIDITTENQYRLTSLYAEHPGDCLIFKATSPSGSKMQLLETEFSHTVGELIEVHLRRQDSIPAFLSSLTLELFSRQTVA
In the case of B2, in the series with kinetochore, the “kinetochore targeting of F629A / R630A mutants, in words” value is “defective in kinetochore targeting”.

B3: S459A: Bub1 S459A mutation (protein, UniProt O43683 1-1085, looked up, variant S459A)
Mitotic checkpoint …: MDTPENVLQMLEAHMQSYKGNDPLGEWERYIQWVEENFPENKEYLITLLEHLMKEFLDKKKYHNDPRFISYCLKFAEYNSDLHQFFEFLYNHGIGTLSSPLYIAWAGHLEAQGELQHASAVLQRGIQNQAEPREFLQQQYRLFQTRLTETHLPAQARTSEPLHNVQVLNQMITSKSNPGNNMACISKNQGSELSGVISSACDKESNMERRVITISKSEYSVHSSLASKVDVEQVVMYCKEKLIRGESEFSFEELRAQKYNQRRKHEQWVNEDRHYMKRKEANAFEEQLLKQKMDELHKKLHQVVETSHEDLPASQERSEVNPARMGPSVGSQQELRAPCLPVTYQQTPVNMEKNPREAPPVVPPLANAISAALVSPATSQSIAPPVPLKAQTVTDSMFAVASKDAGCVNKSTHEFKPQSGAEIKEGCETHKVANTSSFHTTPNTSLGMVQATPSKVQPAPTVHTKEALGFIMNMFQAPTLPDISDDKDEWQSLDQNEDAFEAQFQKNVRSSGAWGVNKIISSLSSAFHVFEDGNKENYGLPQPKNKPTGARTFGERSVSRLPSKPKEEVPHAEEFLDDSTVWGIRCNKTLAPSPKSPGDFTSAAQLASTPFHKLPVESVHILEDKENVVAKQCTQATLDSCEENMVVPSRDGKFSPIQEKSPKQALSSHMYSASLLRLSQPAAGGVLTCEAELGVEACRLTDTDAAIAEDPPDAIAGLQAEWMQMSSLGTVDAPNFIVGNPWDDKLIFKLLSGLSKPVSSYPNTFEWQCKLPAIKPKTEFQLGSKLVYVHHLLGEGAFAQVYEATQGDLNDAKNKQKFVLKVQKPANPWEFYIGTQLMERLKPSMQHMFMKFYSAHLFQNGSVLVGELYSYGTLLNAINLYKNTPEKVMPQGLVISFAMRMLYMIEQVHDCEIIHGDIKPDNFILGNGFLEQDDEDDLSAGLALIDLGQSIDMKLFPKGTIFTAKCETSGFQCVEMLSNKPWNYQIDYFGVAATVYCMLFGTYMKVKNEGGECKPEGLFRRLPHLDMWNEFFHVMLNIPDCHHLPSLDLLRQKLKKVFQQHYTNKIRALRNRLIVLLLECKRSRK
For B3, in the series with kinetochore (ref Zhang et al, 2017), the “Mad1 kinetochore recruitment by Bub1 S459A, in words” value was “inactivates Bub1‐mediated Mad1 kinetochore recruitment”.
